{"source": "paper PMC4464172", "origin": "cited, not measured here", "molecular_target": "CAII (Homo sapiens) (UniProt P00918)", "assay": "isothermal titration calorimetry", "data": [{"substance": "NBCe1-A (from UniProt Q9Y6R1)", "values": [{"measurement": "Kd", "result": 160, "unit": "nM"}]}]}
